In patent US20110256180A1 (CHILDREN S HOSPITAL AND RESEARCH CENTER AT OAKLAND, published 2011):

Columns and labels:
[1] = biological target: human complement factor H (human) (UniProt P08603); assay: ELISA, vs respective wildtype fHbp
[2] = biological target: T1, human complement factor H (human, UniProt P08603 19-1231); assay: ELISA, fHbp on plate
T1 construct: also called human fH; fH

[3] = biological target: T1, human complement factor H; assay: ELISA, vs respective wildtype fHbp

T1 sequence (P08603 19-1231 limits assumed): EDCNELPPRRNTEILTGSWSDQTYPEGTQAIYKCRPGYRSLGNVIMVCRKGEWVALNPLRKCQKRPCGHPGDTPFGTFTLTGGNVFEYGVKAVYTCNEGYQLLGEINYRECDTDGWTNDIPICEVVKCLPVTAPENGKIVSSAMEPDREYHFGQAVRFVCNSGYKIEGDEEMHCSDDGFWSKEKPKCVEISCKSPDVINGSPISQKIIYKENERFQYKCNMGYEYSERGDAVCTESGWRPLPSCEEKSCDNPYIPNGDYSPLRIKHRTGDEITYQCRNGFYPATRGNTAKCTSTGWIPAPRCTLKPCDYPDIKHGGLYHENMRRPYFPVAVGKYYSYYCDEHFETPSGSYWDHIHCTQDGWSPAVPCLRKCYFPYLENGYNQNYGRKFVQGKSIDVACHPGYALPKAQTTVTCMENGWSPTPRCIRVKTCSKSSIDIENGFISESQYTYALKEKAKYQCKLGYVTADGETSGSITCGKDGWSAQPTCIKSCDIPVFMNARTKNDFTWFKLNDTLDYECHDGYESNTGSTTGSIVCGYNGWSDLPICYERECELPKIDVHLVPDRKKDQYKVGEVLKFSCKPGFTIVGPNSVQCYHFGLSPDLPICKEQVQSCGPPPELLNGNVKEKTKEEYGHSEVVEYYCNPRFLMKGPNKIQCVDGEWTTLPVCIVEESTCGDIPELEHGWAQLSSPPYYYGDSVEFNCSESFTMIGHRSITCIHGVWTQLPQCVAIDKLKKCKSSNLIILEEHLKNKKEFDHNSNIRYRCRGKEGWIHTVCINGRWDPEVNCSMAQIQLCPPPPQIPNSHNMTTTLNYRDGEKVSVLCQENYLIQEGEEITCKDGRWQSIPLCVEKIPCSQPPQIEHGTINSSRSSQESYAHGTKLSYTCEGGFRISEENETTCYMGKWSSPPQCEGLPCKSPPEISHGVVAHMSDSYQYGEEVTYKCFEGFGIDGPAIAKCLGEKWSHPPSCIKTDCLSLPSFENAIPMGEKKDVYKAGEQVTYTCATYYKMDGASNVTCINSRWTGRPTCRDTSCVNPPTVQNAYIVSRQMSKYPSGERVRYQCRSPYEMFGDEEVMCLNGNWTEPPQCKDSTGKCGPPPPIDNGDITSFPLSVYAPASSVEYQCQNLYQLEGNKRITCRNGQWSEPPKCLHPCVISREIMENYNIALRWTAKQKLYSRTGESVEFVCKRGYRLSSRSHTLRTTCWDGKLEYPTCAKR
human complement factor H (human), sequence (P08603 19-1231 limits assumed): as above

With fHbp ID 74 R41S mutant the Fold-Decrease in fH binding [1] was > 50 fold.

With fHbp ID 9 R41S mutant the Fold-Decrease in fH binding [1] was > 50 fold.

B1: fHbp ID 15 E241K mutant (other)
chain: CSSGGGGSGGGGVAADIGAGLADALTAPLDHKDKGLKSLTLEDSISQNGTLTLSAQGAERTFKAGDKDNSLNTGKLKNDKISRFDFIRQIEVDGQLITLESGEFQVYKQSHSALTALQTEQVQDSEHSGKMVAKRQFRIGDIVGEHTSFGKLPKDVMATYRGTAFGSDDAGGKLTYTIDFAAKQGHGKIEHLKSPELNVDLAAADIKPDEKHHAVISGSVLYNQAEKGSYSLGIFGGQAQEVAGSAEVKTANGIRHIGLAAKQ
B1 was tested, and the “fold effect on fH binding relative to wildtype fHbp” value [2] was < 2 fold and the “Fold-Decrease in fH binding” value [3] was 0 fold.

B2: fHbp ID 14 (natural variant, variant group 1, modular group I) (other)
chain: CSSGGGGVAADIGAGLADALTAPLDHKDKSLQSLTLDQSVRKNEKLKLAAQGAEKTYGNGDSLNTGKLKNDKVSRFDFIRQIEVDGQLITLESGEFQVYKQSHSALTALQTEQEQDPEHSGKMVAKRRFKIGDIAGEHTSFDKLPKDVMATYRGTAFGSDDAGGKLTYTIDFAAKQGHGKIEHLKSPELNVELATAYIKPDEKHHAVISGSVLYNQDEKGSYSLGIFGGQAQEVAGSAEVETANGIHHIGLAAKQ
notes: Recombinant
B2: binds [2].

B3: fHbp ID 77 D121A mutant (other)
chain: CSSGGGGVAADIGARLADALTAPLDHKDKSLQSLTLDQSVRKNEKLKLAAQGAEKTYGNGDSLNTGKLKNDKVSRFDFIRQIEVDGQLITLESGEFQIYKQDHSAVVALQIEKINNPDKIASLINQRSFLVSGLGGEHTAFNQLPDGKAEYHGKAFSSDDAGGKLTYTIDFAAKQGHGKIEHLKTPEQNVELAAAELKADEKSHAVILGDTRYGSEEKGTYHLALFGDRAQEIAGSATVKIGEKVHEIGIAGKQ
With B3 the “fold decrease in fH binding compared with wildtype fHbp ID 77” value [2] was ~4 fold and the “Fold-Decrease in fH binding” value [3] was 0 fold.

B4: fHbp ID 77 R41S mutant (other)
chain: CSSGGGGVAADIGARLADALTAPLDHKDKSLQSLTLDQSVSKNEKLKLAAQGAEKTYGNGDSLNTGKLKNDKVSRFDFIRQIEVDGQLITLESGEFQIYKQDHSAVVALQIEKINNPDKIDSLINQRSFLVSGLGGEHTAFNQLPDGKAEYHGKAFSSDDAGGKLTYTIDFAAKQGHGKIEHLKTPEQNVELAAAELKADEKSHAVILGDTRYGSEEKGTYHLALFGDRAQEIAGSATVKIGEKVHEIGIAGKQ
notes: also called R41S (ID 77)
For B4, the “Fold-Decrease in fH binding” value [3] was 0 fold.

B5: fHbp ID 77 K113A mutant (other)
chain: CSSGGGGVAADIGARLADALTAPLDHKDKSLQSLTLDQSVRKNEKLKLAAQGAEKTYGNGDSLNTGKLKNDKVSRFDFIRQIEVDGQLITLESGEFQIYKQDHSAVVALQIEAINNPDKIDSLINQRSFLVSGLGGEHTAFNQLPDGKAEYHGKAFSSDDAGGKLTYTIDFAAKQGHGKIEHLKTPEQNVELAAAELKADEKSHAVILGDTRYGSEEKGTYHLALFGDRAQEIAGSATVKIGEKVHEIGIAGKQ
For B5, the “Fold-Decrease in fH binding” value [3] was 0 fold.

B6: fHbp ID 77 K119A mutant (other)
chain: CSSGGGGVAADIGARLADALTAPLDHKDKSLQSLTLDQSVRKNEKLKLAAQGAEKTYGNGDSLNTGKLKNDKVSRFDFIRQIEVDGQLITLESGEFQIYKQDHSAVVALQIEKINNPDAIDSLINQRSFLVSGLGGEHTAFNQLPDGKAEYHGKAFSSDDAGGKLTYTIDFAAKQGHGKIEHLKTPEQNVELAAAELKADEKSHAVILGDTRYGSEEKGTYHLALFGDRAQEIAGSATVKIGEKVHEIGIAGKQ
For B6, the “fold increase in fH binding compared to wildtype fHbp ID 77” value [2] was ~4 fold and the “Fold-Decrease in fH binding” value [3] was 0 fold.

B7: fHbp ID 77 K113A/D121A double mutant (other)
chain: CSSGGGGVAADIGARLADALTAPLDHKDKSLQSLTLDQSVRKNEKLKLAAQGAEKTYGNGDSLNTGKLKNDKVSRFDFIRQIEVDGQLITLESGEFQIYKQDHSAVVALQIEAINNPDKIASLINQRSFLVSGLGGEHTAFNQLPDGKAEYHGKAFSSDDAGGKLTYTIDFAAKQGHGKIEHLKTPEQNVELAAAELKADEKSHAVILGDTRYGSEEKGTYHLALFGDRAQEIAGSATVKIGEKVHEIGIAGKQ
B7 was tested, and the “fold decreased binding of fH” value [2] was ~10 fold.

B8: fHbp ID 28, wild-type (strain M1239, variant group 3, modular group II) (other)
chain: CSSGGGGSGGGGVAADIGTGLADALTAPLDHKDKGLKSLTLEDSIPQNGTLTLSAQGAEKTFKAGDKDNSLNTGKLKNDKISRFDFVQKIEVDGQTITLASGEFQIYKQNHSAVVALQIEKINNPDKTDSLINQRSFLVSGLGGEHTAFNQLPGGKAEYHGKAFSSDDPNGRLHYSIDFTKKQGYGRIEHLKTLEQNVELAAAELKADEKSHAVILGDTRYGSEEKGTYHLALFGDRAQEIAGSATVKIGEKVHEIGIAGKQ
notes: Recombinant; also called Pep28; peptide 28
B8: binds [2].

B9: fHbp ID 28 E218A mutant (other)
chain: CSSGGGGSGGGGVAADIGTGLADALTAPLDHKDKGLKSLTLEDSIPQNGTLTLSAQGAEKTFKAGDKDNSLNTGKLKNDKISRFDFVQKIEVDGQTITLASGEFQIYKQNHSAVVALQIEKINNPDKTDSLINQRSFLVSGLGGEHTAFNQLPGGKAEYHGKAFSSDDPNGRLHYSIDFTKKQGYGRIEHLKTLEQNVELAAAELKADEKSHAVILGDTRYGSEAKGTYHLALFGDRAQEIAGSATVKIGEKVHEIGIAGKQ
notes: also called E218A (ID 28)
B9: binds [2].

B10: fHbp ID 28 K245A mutant (other)
chain: CSSGGGGSGGGGVAADIGTGLADALTAPLDHKDKGLKSLTLEDSIPQNGTLTLSAQGAEKTFKAGDKDNSLNTGKLKNDKISRFDFVQKIEVDGQTITLASGEFQIYKQNHSAVVALQIEKINNPDKTDSLINQRSFLVSGLGGEHTAFNQLPGGKAEYHGKAFSSDDPNGRLHYSIDFTKKQGYGRIEHLKTLEQNVELAAAELKADEKSHAVILGDTRYGSEEKGTYHLALFGDRAQEIAGSATVKIGEAVHEIGIAGKQ
B10: binds [2].

B11: fHbp ID 28 D201A mutant (other)
chain: CSSGGGGSGGGGVAADIGTGLADALTAPLDHKDKGLKSLTLEDSIPQNGTLTLSAQGAEKTFKAGDKDNSLNTGKLKNDKISRFDFVQKIEVDGQTITLASGEFQIYKQNHSAVVALQIEKINNPDKTDSLINQRSFLVSGLGGEHTAFNQLPGGKAEYHGKAFSSDDPNGRLHYSIDFTKKQGYGRIEHLKTLEQNVELAAAELKAAEKSHAVILGDTRYGSEEKGTYHLALFGDRAQEIAGSATVKIGEKVHEIGIAGKQ
notes: also called D201A (ID 28)
B11: binds [2].

B12: fHbp ID 28 E197A mutant (other)
chain: CSSGGGGSGGGGVAADIGTGLADALTAPLDHKDKGLKSLTLEDSIPQNGTLTLSAQGAEKTFKAGDKDNSLNTGKLKNDKISRFDFVQKIEVDGQTITLASGEFQIYKQNHSAVVALQIEKINNPDKTDSLINQRSFLVSGLGGEHTAFNQLPGGKAEYHGKAFSSDDPNGRLHYSIDFTKKQGYGRIEHLKTLEQNVELAAAALKADEKSHAVILGDTRYGSEEKGTYHLALFGDRAQEIAGSATVKIGEKVHEIGIAGKQ
B12: binds [2].

B13: fHbp chimera I R41S mutant (other)
chain: CSSGGGGVAADIGAGLADALTAPLDHKDKGLQSLTLDQSVSKNEKLKLAAQGAEKTYGNGDSLNTGKLKNDKVSRFDFIRQIEVDGQLITLESGEFQVYKQSHSALTAFQTEQIQDSEHSGKMVAKRQFRIGDIAGEHTAFNQLPDGKAEYHGKAFSSDDAGGKLTYTIDFAAKQGHGKIEHLKTPEQNVELAAAELKADEKSHAVILGDTRYGSEEKGTYHLALFGDRAQEIAGSATVKIGEKVHEIGIAGKQ
notes: Recombinant; also called R41S mutant of the fHbp chimera I
B13: no binding [2].

B14: fHbp ID 22 A235G mutant (other)
chain: CSSGGGGVAADIGAGLADALTAPLDHKDKSLQSLTLDQSVRKNEKLKLAAQGAEKTYGNGDSLNTGKLKNDKVSRFDFIRQIEVDGQLITLESGEFQIYKQDHSAVVALQIEKINNPDKIDSLINQRSFLVSGLGGEHTAFNQLPSGKAEYHGKAFSSDDPNGRLHYSIDFTKKQGYGRIEHLKTPEQNVELASAELKADEKSHAVILGDTRYGGEEKGTYHLALFGDRAQEIGGSATVKIREKVHEIGIAGKQ
With B14 the “Fold-Decrease in fH binding” value [3] was 0 fold.

B15: fHbp ID 22 Q38A mutant (other)
chain: CSSGGGGVAADIGAGLADALTAPLDHKDKSLQSLTLDASVRKNEKLKLAAQGAEKTYGNGDSLNTGKLKNDKVSRFDFIRQIEVDGQLITLESGEFQIYKQDHSAVVALQIEKINNPDKIDSLINQRSFLVSGLGGEHTAFNQLPSGKAEYHGKAFSSDDPNGRLHYSIDFTKKQGYGRIEHLKTPEQNVELASAELKADEKSHAVILGDTRYGGEEKGTYHLALFGDRAQEIAGSATVKIREKVHEIGIAGKQ
B15 was tested, and the “fold reduction in fH binding vs wildtype fHbp ID 22” value (shortened to “fold reduction in fH binding”) [2] was < 4 fold and the “Fold-Decrease in fH binding” value [3] was 0 fold.

B16: fHbp ID 22 E202A mutant (other)
chain: CSSGGGGVAADIGAGLADALTAPLDHKDKSLQSLTLDQSVRKNEKLKLAAQGAEKTYGNGDSLNTGKLKNDKVSRFDFIRQIEVDGQLITLESGEFQIYKQDHSAVVALQIEKINNPDKIDSLINQRSFLVSGLGGEHTAFNQLPSGKAEYHGKAFSSDDPNGRLHYSIDFTKKQGYGRIEHLKTPEQNVELASAELKADAKSHAVILGDTRYGGEEKGTYHLALFGDRAQEIAGSATVKIREKVHEIGIAGKQ
B16 was tested, and the “Fold-Decrease in fH binding” value [3] was 0 fold.

B17: fHbp ID 22 D201A mutant (other)
chain: CSSGGGGVAADIGAGLADALTAPLDHKDKSLQSLTLDQSVRKNEKLKLAAQGAEKTYGNGDSLNTGKLKNDKVSRFDFIRQIEVDGQLITLESGEFQIYKQDHSAVVALQIEKINNPDKIDSLINQRSFLVSGLGGEHTAFNQLPSGKAEYHGKAFSSDDPNGRLHYSIDFTKKQGYGRIEHLKTPEQNVELASAELKAAEKSHAVILGDTRYGGEEKGTYHLALFGDRAQEIAGSATVKIREKVHEIGIAGKQ
notes: also called D201A (ID 22)
For B17, the “Fold-Decrease in fH binding” value [3] was 0 fold.

B18: fHbp ID 22 Q126A mutant (other)
chain: CSSGGGGVAADIGAGLADALTAPLDHKDKSLQSLTLDQSVRKNEKLKLAAQGAEKTYGNGDSLNTGKLKNDKVSRFDFIRQIEVDGQLITLESGEFQIYKQDHSAVVALQIEKINNPDKIDSLINARSFLVSGLGGEHTAFNQLPSGKAEYHGKAFSSDDPNGRLHYSIDFTKKQGYGRIEHLKTPEQNVELASAELKADEKSHAVILGDTRYGGEEKGTYHLALFGDRAQEIAGSATVKIREKVHEIGIAGKQ
In the case of B18, the “fold reduction in fH binding” value [2] is reported as < 4 fold and the “Fold-Decrease in fH binding” value [3] is reported as 0 fold.

B19: fHbp ID 22 R41S mutant (other)
chain: CSSGGGGVAADIGAGLADALTAPLDHKDKSLQSLTLDQSVSKNEKLKLAAQGAEKTYGNGDSLNTGKLKNDKVSRFDFIRQIEVDGQLITLESGEFQIYKQDHSAVVALQIEKINNPDKIDSLINQRSFLVSGLGGEHTAFNQLPSGKAEYHGKAFSSDDPNGRLHYSIDFTKKQGYGRIEHLKTPEQNVELASAELKADEKSHAVILGDTRYGGEEKGTYHLALFGDRAQEIAGSATVKIREKVHEIGIAGKQ
notes: also called R41S (ID 22)
In the case of B19, the “fold reduction in fH binding” value [2] is reported as < 4 fold and the “Fold-Decrease in fH binding” value [3] is reported as 0 fold.
